Assay results as given in US9120869 (UNIVERSITY OF SOUTH FLORIDA A FLORIDA NON PROFIT, dated 2015).

Experiments:
[1] = biological target: T1, Duffy antigen receptor for chemokines (DARC) on Duffy-positive human erythrocytes (human, UniProt Q16570 1-336); assay: erythrocyte binding assay, Western blot
T1 construct: whole, on cells; also called Duffy blood group antigen; Duffy antigen surface receptor
T1 sequence: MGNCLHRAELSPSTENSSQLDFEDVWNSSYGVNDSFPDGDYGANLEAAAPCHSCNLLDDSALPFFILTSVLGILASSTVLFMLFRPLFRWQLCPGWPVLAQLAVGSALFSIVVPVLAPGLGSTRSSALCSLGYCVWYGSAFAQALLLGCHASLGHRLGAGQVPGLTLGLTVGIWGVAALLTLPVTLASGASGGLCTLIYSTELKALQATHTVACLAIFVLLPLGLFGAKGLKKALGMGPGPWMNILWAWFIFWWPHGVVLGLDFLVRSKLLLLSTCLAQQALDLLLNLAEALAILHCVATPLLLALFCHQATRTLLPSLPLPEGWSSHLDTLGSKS

[2] = biological target: T1, Duffy antigen receptor for chemokines …; assay: COS7 erythrocyte-binding assay (rosettes)

B1: recombinant DBPII-Sal1 (refolded ligand domain, region II, of Plasmodium vivax Duffy binding protein, Sal1 variant) (ligand)
chain: NHAFLQNTVMKNCNYKRKRRERDWDCNTKKDVCIPDRRYQLCMKELTNLVNNTDTNFHRDITFRKLYLKRKLIYDAAVEGDLLLKLNNYRYNKDFCKDIRWSLGDFGDIIMGTDMEGIGYSKVVENNLRSIFGTDEKAQQRRKQWWNESKAQIWTAMMYSVKKRLKGNFIWICKLNVAVNIEPQIYRWIREWGRDYVSELPTEVQKLKEKCDGKINYTDKKVCKVPPCQNACKSYDQWITRKKNQWDVLSNKFISVKNAEKVQTAGIVTPYDILKQELDEFNEVAFENEINKRDGAYIEL
notes: also called recombinant Sal1; rSal1; not shown: C-terminal histidine tag from pET21a+
binding result [1]: binds

B2: COS7-expressed PvDBP-RII variant Sal 1 (ligand)
chain: NHAFLQNTVMKNCNYKRKRRERDWDCNTKKDVCIPDRRYQLCMKELTNLVNNTDTNFHRDITFRKLYLKRKLIYDAAVEGDLLLKLNNYRYNKDFCKDIRWSLGDFGDIIMGTDMEGIGYSKVVENNLRSIFGTDEKAQQRRKQWWNESKAQIWTAMMYSVKKRLKGNFIWICKLNVAVNIEPQIYRWIREWGRDYVSELPTEVQKLKEKCDGKINYTDKKVCKVPPCQNACKSYDQWITRKKNQWDVLSNKFISVKNAEKVQTAGIVTPYDILKQELDEFNEVAFENEINKRDGAYIEL
notes: The (mut) plasmid differs from (original) by a PvuII to EcoRI site change; also called DBPII-Sal1 expressed on surface of COS7 cells; pEGFP-Sal 1 (original); not shown: C-terminal GFP tag (pEGFP-N1)
binding result [2]: binds
